Measured values: article PMC2734569, “Functional mapping of the fission yeast DNA polymerase δ B-subunit Cdc1 by site-directed and random pentapeptide insertion mutagenesis” (BMC Molecular Biology, 2009)

Columns and labels:
Assay in all cases: two-hybrid; LexA-Cdc1 bait (pBTM116 or pBTM116BN) with Gal4 activation domain-Cdc27 prey (pGAD2F-Cdc27) in S. cerevisiae CTY10-5d; ONPG liquid culture beta-galactosidase assay, mean of triplicates, as percent of wild-type Cdc1
Conditions in all cases: partners not purified
[1] = target: T1, Cdc1 (fission yeast DNA polymerase delta B-subunit), wild type (Schizosaccharomyces pombe, UniProt P87324 1-462)
T1 construct: DNA polymerase delta B-subunit Cdc1, S. pombe; cdc1+ cDNA on a 1.5 kb BamHI fragment from pBTM116-Cdc1, ORF 1386 bp; also called WT; LexA-Cdc1; source: yeast two-hybrid fusion, in S. cerevisiae CTY10-5d
T1 sequence (looked up): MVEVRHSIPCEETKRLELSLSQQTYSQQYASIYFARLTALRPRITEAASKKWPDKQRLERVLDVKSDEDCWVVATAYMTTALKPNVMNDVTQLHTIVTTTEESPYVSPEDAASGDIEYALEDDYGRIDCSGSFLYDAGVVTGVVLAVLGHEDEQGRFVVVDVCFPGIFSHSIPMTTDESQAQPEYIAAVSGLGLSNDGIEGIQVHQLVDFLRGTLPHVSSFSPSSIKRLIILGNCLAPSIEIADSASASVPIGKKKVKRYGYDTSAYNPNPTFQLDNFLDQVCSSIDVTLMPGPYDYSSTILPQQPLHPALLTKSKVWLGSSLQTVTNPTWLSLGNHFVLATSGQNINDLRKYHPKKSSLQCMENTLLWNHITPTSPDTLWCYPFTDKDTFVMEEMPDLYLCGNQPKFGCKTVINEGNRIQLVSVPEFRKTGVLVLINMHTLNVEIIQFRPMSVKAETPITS

Cdc1-J16 = target: T2, Cdc1-J16 (Schizosaccharomyces pombe, UniProt P87324 1-462, Val-GlyGlyThrProVal-Asp)
T2 construct: Cdc1, S. pombe, with a pentapeptide inserted after residue 160; source: yeast two-hybrid fusion, in S. cerevisiae CTY10-5d
T2 sequence (looked up): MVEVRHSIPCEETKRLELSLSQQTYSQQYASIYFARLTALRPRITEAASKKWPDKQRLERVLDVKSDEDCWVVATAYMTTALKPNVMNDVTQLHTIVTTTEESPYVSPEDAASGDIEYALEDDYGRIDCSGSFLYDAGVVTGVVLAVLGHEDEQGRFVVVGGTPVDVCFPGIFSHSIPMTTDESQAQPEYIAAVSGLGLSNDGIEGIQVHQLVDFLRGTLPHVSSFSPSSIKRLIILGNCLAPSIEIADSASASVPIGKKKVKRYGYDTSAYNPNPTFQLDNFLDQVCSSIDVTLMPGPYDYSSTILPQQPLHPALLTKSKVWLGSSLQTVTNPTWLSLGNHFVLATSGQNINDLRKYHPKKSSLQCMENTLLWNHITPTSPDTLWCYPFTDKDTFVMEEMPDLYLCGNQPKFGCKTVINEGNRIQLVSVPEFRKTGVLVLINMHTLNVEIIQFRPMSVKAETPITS

Cdc1-A8 = target: T3, Cdc1-A8 (Schizosaccharomyces pombe, UniProt P87324 1-462, Pro374Ala)
T3 construct: Cdc1, S. pombe, point mutant; source: yeast two-hybrid fusion, in S. cerevisiae CTY10-5d
T3 sequence (looked up): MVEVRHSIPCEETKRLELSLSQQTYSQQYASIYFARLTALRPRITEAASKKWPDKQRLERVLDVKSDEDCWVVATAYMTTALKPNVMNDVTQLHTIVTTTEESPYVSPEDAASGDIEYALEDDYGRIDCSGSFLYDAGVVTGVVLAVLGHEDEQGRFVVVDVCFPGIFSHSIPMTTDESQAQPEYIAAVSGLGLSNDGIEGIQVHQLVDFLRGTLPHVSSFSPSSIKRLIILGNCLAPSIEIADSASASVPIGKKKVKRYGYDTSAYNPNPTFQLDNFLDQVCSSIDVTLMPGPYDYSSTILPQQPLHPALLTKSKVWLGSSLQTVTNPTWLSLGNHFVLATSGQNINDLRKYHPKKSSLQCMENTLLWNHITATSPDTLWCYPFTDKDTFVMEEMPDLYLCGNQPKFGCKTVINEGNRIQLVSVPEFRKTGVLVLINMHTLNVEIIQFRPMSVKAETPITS

Cdc1-J15 = target: T4, Cdc1-J15 (Schizosaccharomyces pombe, UniProt P87324 1-462, Gln-GlyValProLeuGln-Val)
T4 construct: Cdc1, S. pombe, with a pentapeptide inserted after residue 203; source: yeast two-hybrid fusion, in S. cerevisiae CTY10-5d
T4 sequence (looked up): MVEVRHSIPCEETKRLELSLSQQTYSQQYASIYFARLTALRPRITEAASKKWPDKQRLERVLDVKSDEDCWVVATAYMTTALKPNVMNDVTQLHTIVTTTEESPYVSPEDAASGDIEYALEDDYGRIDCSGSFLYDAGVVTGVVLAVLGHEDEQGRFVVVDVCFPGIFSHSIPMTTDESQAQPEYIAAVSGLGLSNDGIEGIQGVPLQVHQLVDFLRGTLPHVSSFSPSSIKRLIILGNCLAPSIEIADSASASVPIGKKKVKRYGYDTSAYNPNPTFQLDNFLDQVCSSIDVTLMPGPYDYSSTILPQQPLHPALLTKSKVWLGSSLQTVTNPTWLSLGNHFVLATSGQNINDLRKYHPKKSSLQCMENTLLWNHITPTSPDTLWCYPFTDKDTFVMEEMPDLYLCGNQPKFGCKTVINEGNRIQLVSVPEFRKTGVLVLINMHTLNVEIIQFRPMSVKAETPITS

two-hybrid beta-galactosidase activity, % of wild-type Cdc1 [1]: 100%
two-hybrid beta-galactosidase activity, % of wild-type Cdc1 (Cdc1-J16): < 1%
two-hybrid beta-galactosidase activity, % of wild-type Cdc1 (Cdc1-A8): 8%
two-hybrid beta-galactosidase activity, % of wild-type Cdc1 (Cdc1-J15): 78%
B1: Cdc27 (fission yeast DNA polymerase delta C-subunit) (natural protein, Schizosaccharomyces pombe, UniProt P30261 1-372, looked up)
chain: MEEWRNFLDIKVINESSLVTVDNLSLQLDISSEKAQEYLNMFYQGNDFLYPIYLIHGQPIDDEINLEIDEESQPISNFPVLQYILCDKSSLQEKQSRLKSGYKTVIFALSSAPLSDFDELLPAVYEIREKDVLYKKEDADKYGFIFNENSVPRVLKKAPSTHSPQLSVPSKTSTIDKTDTRSTEKTKGKDIFSNARNQKGNSSRKNKKAPLENHKEKEPLLPKEEKLSEQAKRERDDLKNIMQLEDESVSTTSVHDSEDDNLDSNNFQLEIGTEAKSAAPDEPQEIIKSVSGGKRRGKRKVKKYATTKDEEGFLVTKEEEVWESFSEDENISTGTSNVVRNKPTTVNIATKKKNTAQSKPQQKSIMSFFGKK
notes: DNA polymerase delta C-subunit Cdc27, S. pombe; prey plasmid pGAD2F-Cdc27; also called pGAD2F-Cdc27; source: yeast two-hybrid fusion, in S. cerevisiae CTY10-5d
